Reference: the supplement of paper PMC12042874
± gives the uncertainty stated by the source.

Assay: amyloid nucleation score (Sup35N fusion, yeast selection) (log enrichment); library NNK2; higher = more nucleation; inactive = no reads after selection
Procedure, shortened: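 In psi-negative yeast, Sup35N fusions carrying peptides of 20 random codons were induced with 100 μM copper sulfate for 24 hours. The cells then grew 7 days at 30°C on medium lacking adenine and uracil, and plasmid inserts from input and output were Illumina-sequenced, excluding sequences with under 100 input reads. Nucleation score is the DiMSum log enrichment of output over input reads, centred on the mode score of non-aggregating sequences.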

Question: For TVMRGVLCMTILYLMWHKGY, which amyloid nucleation score is on record?
Answer: Its amyloid nucleation score is 4.75 ± 0.08.

Question: For TVNCLGIFSRFLCLNWASWL, which amyloid nucleation score is on record?
Answer: The amyloid nucleation score was 3.53 ± 0.15.

Question: Which amyloid nucleation score does the source give for TVRLVWSWMHTPLFGPVTCA here?
Answer: Its amyloid nucleation score is 0.073 ± 0.56.

Question: Which amyloid nucleation score does the source give for TVSIDLASIWALA here?
Answer: Its amyloid nucleation score is “inactive”.

Question: Which amyloid nucleation score does the source give for TVSNPGMPNAI here?
Answer: Its amyloid nucleation score is -0.557 ± 0.64.

Question: For TVSQFLFN, which amyloid nucleation score is on record?
Answer: The amyloid nucleation score was -0.559 ± 0.76.

Question: Which amyloid nucleation score does the source give for TVVGSLSVVF here?
Answer: Its amyloid nucleation score is 1.47 ± 0.38.

Question: For TVYAIP, which amyloid nucleation score is on record?
Answer: The amyloid nucleation score was -0.322 ± 0.65.

Question: With TWNGVWLGDFACFSWYMGPL as the substance, how does the amyloid nucleation score read?
Answer: Its amyloid nucleation score is 0.094 ± 0.36.

Question: With TWRYRKMFASASFA as the substance, how does the amyloid nucleation score read?
Answer: The amyloid nucleation score was 0.33 ± 0.16.

Question: Which amyloid nucleation score does the source give for TWTLQQSVLVSEKNAKGRVT here?
Answer: Its amyloid nucleation score is 3.98 ± 0.078.

Question: Which amyloid nucleation score does the source give for TYCILPLRVRMWTSTTLCQV here?
Answer: Its amyloid nucleation score is 4.59 ± 0.055.

Question: With TYDLDLVMLRSMRVENLLWG as the substance, how does the amyloid nucleation score read?
Answer: The amyloid nucleation score was 0.616 ± 0.4.

Question: With TYEMSVVGVEWWVTGQLTIC as the substance, how does the amyloid nucleation score read?
Answer: Its amyloid nucleation score is 1.68 ± 0.38.

Question: With TYFARCFDNWTVNWCVARVC as the substance, how does the amyloid nucleation score read?
Answer: Its amyloid nucleation score is 0.614 ± 0.57.

Question: With TYNGMFTQLAFG as the substance, how does the amyloid nucleation score read?
Answer: The amyloid nucleation score was 3.48 ± 0.07.

Question: Which amyloid nucleation score does the source give for TYPAHFVWLCNCCVDKYSLS here?
Answer: The amyloid nucleation score was 2.79 ± 0.069.

Question: For TYSVGSSYCLRRSFGAGFFS, which amyloid nucleation score is on record?
Answer: The amyloid nucleation score was 0.728 ± 0.25.

Question: With TYTVRFENSRRTGDN as the substance, how does the amyloid nucleation score read?
Answer: The amyloid nucleation score was -0.13 ± 0.41.

Question: Which amyloid nucleation score does the source give for TYVAFGGWLLEMPMLPTWSQ here?
Answer: The amyloid nucleation score was 0.332 ± 0.37.

Question: With VADMVVRT as the substance, how does the amyloid nucleation score read?
Answer: The amyloid nucleation score was 0.806 ± 0.32.

Question: Which amyloid nucleation score does the source give for VAESVSVT here?
Answer: Its amyloid nucleation score is 0.6 ± 0.24.

Question: With VAGIVYLGARW as the substance, how does the amyloid nucleation score read?
Answer: Its amyloid nucleation score is 5.43 ± 0.086.

Question: Which amyloid nucleation score does the source give for VAHKSPFIAHFTWVILAYGM here?
Answer: The amyloid nucleation score was 0.211 ± 0.61.

Question: For VAMVLLC, which amyloid nucleation score is on record?
Answer: The amyloid nucleation score was 1.03 ± 0.21.

Question: For VAQAQQQYP, which amyloid nucleation score is on record?
Answer: The amyloid nucleation score was 1.08 ± 0.53.

Question: For VATLMIKFR, which amyloid nucleation score is on record?
Answer: The amyloid nucleation score was 4.116 ± 0.036.

Question: Which amyloid nucleation score does the source give for VAVLKGVGDSPNLAGDSKWD here?
Answer: The amyloid nucleation score was 0.355 ± 0.56.

Question: Which amyloid nucleation score does the source give for VAVTMHYDNFHCLLCCCSTL here?
Answer: The amyloid nucleation score was 8.384 ± 0.078.

Question: With VAWMFMASFRSLSMMVSISR as the substance, how does the amyloid nucleation score read?
Answer: The amyloid nucleation score was 0.01 ± 0.37.

Question: With VCAQLYPVYMWFWICMGMVQ as the substance, how does the amyloid nucleation score read?
Answer: The amyloid nucleation score was 2.27 ± 0.14.

Question: Which amyloid nucleation score does the source give for VCELGRRWDLRSVLSC here?
Answer: The amyloid nucleation score was 0.624 ± 0.42.

Question: With VCFNWRHYATRLSDERWLRS as the substance, how does the amyloid nucleation score read?
Answer: The amyloid nucleation score was 1.1 ± 0.52.

Question: For VCFVWDKARAMCSFYFV, which amyloid nucleation score is on record?
Answer: The amyloid nucleation score was -0.596 ± 0.79.

Question: Which amyloid nucleation score does the source give for VCGMLTVIHWFLVIVVIDLV here?
Answer: Its amyloid nucleation score is 0.863 ± 0.58.

Question: For VCGWFHGHWGTWWDVQQRKR, which amyloid nucleation score is on record?
Answer: The amyloid nucleation score was 2.3 ± 0.16.

Question: With VCPPSDVS as the substance, how does the amyloid nucleation score read?
Answer: Its amyloid nucleation score is “inactive”.

Question: Which amyloid nucleation score does the source give for VCREMSYLQ here?
Answer: Its amyloid nucleation score is -0.809 ± 0.54.

Question: Which amyloid nucleation score does the source give for VCSGGLQDSRGYCCYPVGRM here?
Answer: The amyloid nucleation score was 1.31 ± 0.32.

Question: Which amyloid nucleation score does the source give for VCVGYFCC here?
Answer: Its amyloid nucleation score is 5.789 ± 0.024.

Question: Which amyloid nucleation score does the source give for VCVLYLTSTGFLGQLY here?
Answer: The amyloid nucleation score was 2.74 ± 0.14.

Question: For VDCGFYSSIVAFYRYVHVPW, which amyloid nucleation score is on record?
Answer: Its amyloid nucleation score is -0.026 ± 0.27.

Question: For VDIASLKLTSNH, which amyloid nucleation score is on record?
Answer: Its amyloid nucleation score is -0.213 ± 0.65.

Question: For VDITL, which amyloid nucleation score is on record?
Answer: Its amyloid nucleation score is -0.779 ± 0.56.

Question: For VDRHYRSLRFVVGQSVLHSK, which amyloid nucleation score is on record?
Answer: Its amyloid nucleation score is 4.952 ± 0.046.

Question: Which amyloid nucleation score does the source give for VDRYLSHCVGKGLDF here?
Answer: Its amyloid nucleation score is -0.55 ± 0.56.

Question: Which amyloid nucleation score does the source give for VDSVTGVMTFSTRSRSSDGD here?
Answer: The amyloid nucleation score was 0.844 ± 0.43.

Question: Which amyloid nucleation score does the source give for VDTSYITCITRLSPYIKVVL here?
Answer: The amyloid nucleation score was -0.477 ± 0.79.

Question: Which amyloid nucleation score does the source give for VDVFPAPSHRCGLMNLCNLV here?
Answer: Its amyloid nucleation score is 0.969 ± 0.28.

Question: Which amyloid nucleation score does the source give for VDVVG here?
Answer: Its amyloid nucleation score is 0.299 ± 0.65.

Question: Which amyloid nucleation score does the source give for VDWVMNCYTSGVVSLSFSLG here?
Answer: The amyloid nucleation score was “inactive”.

Question: Which amyloid nucleation score does the source give for VEIFNLMSGTIIPGLSKLMK here?
Answer: Its amyloid nucleation score is -2.02 ± 0.45.

Question: For VENVTDGAVSARYDDMDTSS, which amyloid nucleation score is on record?
Answer: Its amyloid nucleation score is -0.179 ± 0.3.

Question: With VERFWLIWSRAYYFDFRVRE as the substance, how does the amyloid nucleation score read?
Answer: Its amyloid nucleation score is 0.098 ± 0.79.

Question: With VEWCRMVGWSFECEASEKHW as the substance, how does the amyloid nucleation score read?
Answer: Its amyloid nucleation score is 4.33 ± 0.055.

Question: Which amyloid nucleation score does the source give for VFAGFACFHIIN here?
Answer: Its amyloid nucleation score is 5.843 ± 0.044.

Question: Which amyloid nucleation score does the source give for VFASMFILFYV here?
Answer: Its amyloid nucleation score is 3.46 ± 0.07.

Question: With VFCHLE as the substance, how does the amyloid nucleation score read?
Answer: Its amyloid nucleation score is 2.43 ± 0.13.

Question: With VFDIWFLGSDTSSCVNWTYR as the substance, how does the amyloid nucleation score read?
Answer: Its amyloid nucleation score is 6.583 ± 0.048.

Question: Which amyloid nucleation score does the source give for VFHRVEYSWGFRFYCCCLMC here?
Answer: Its amyloid nucleation score is 3.91 ± 0.059.

Question: With VFIGQQDHINP as the substance, how does the amyloid nucleation score read?
Answer: The amyloid nucleation score was 0.363 ± 0.65.

Question: For VFKFLSAISPFKGD, which amyloid nucleation score is on record?
Answer: Its amyloid nucleation score is 0.551 ± 0.38.

Question: For VFLFDLGYQGR, which amyloid nucleation score is on record?
Answer: The amyloid nucleation score was 6.67 ± 0.073.

Question: For VFLGVSGETVNSTGYFTGMN, which amyloid nucleation score is on record?
Answer: Its amyloid nucleation score is -2.13 ± 1.1.

Question: For VFLLTLRCCWEFVLCADGP, which amyloid nucleation score is on record?
Answer: Its amyloid nucleation score is 1.29 ± 0.36.

Question: For VFLYYRTILMWVVSGLL, which amyloid nucleation score is on record?
Answer: The amyloid nucleation score was -0.449 ± 0.63.

Question: For VFPMNELMASTVNKA, which amyloid nucleation score is on record?
Answer: The amyloid nucleation score was 6.274 ± 0.033.

Question: With VFRGAVSWTVLIGDNKVVLY as the substance, how does the amyloid nucleation score read?
Answer: Its amyloid nucleation score is 0.674 ± 0.45.

Question: With VFSGGSPWWVANMRGAPKLL as the substance, how does the amyloid nucleation score read?
Answer: Its amyloid nucleation score is 0.94 ± 0.2.

Question: Which amyloid nucleation score does the source give for VFSSYYRSKEFTCIVLLGL here?
Answer: Its amyloid nucleation score is -0.026 ± 0.33.

Question: For VFTTQEGTTTIPRNSMIEYA, which amyloid nucleation score is on record?
Answer: The amyloid nucleation score was -0.193 ± 0.37.

Question: Which amyloid nucleation score does the source give for VFVFFGDKW here?
Answer: Its amyloid nucleation score is “inactive”.

Question: With VFVWIGLGWVTSLLSLYTNG as the substance, how does the amyloid nucleation score read?
Answer: Its amyloid nucleation score is “inactive”.

Question: For VFWLLGCVHNRGVGQTSHKL, which amyloid nucleation score is on record?
Answer: Its amyloid nucleation score is 0.741 ± 0.47.

Question: For VFYELGLFLLNFVVLHASED, which amyloid nucleation score is on record?
Answer: Its amyloid nucleation score is 1.68 ± 0.18.

Question: With VFYNLGVHMWLWWSGIVLVR as the substance, how does the amyloid nucleation score read?
Answer: Its amyloid nucleation score is 0.775 ± 0.74.

Question: Which amyloid nucleation score does the source give for VGCIYSFWEWVFKQPVRSRK here?
Answer: Its amyloid nucleation score is “inactive”.

Question: For VGETLLSFCINWRVGYMFGN, which amyloid nucleation score is on record?
Answer: The amyloid nucleation score was -0.518 ± 0.5.

Question: For VGGLDKNHMVLDCLDKGCGM, which amyloid nucleation score is on record?
Answer: The amyloid nucleation score was 0.216 ± 0.62.

Question: For VGGSDSLNFIAIGKTFCVQV, which amyloid nucleation score is on record?
Answer: Its amyloid nucleation score is 0.186 ± 0.27.

Question: Which amyloid nucleation score does the source give for VGGWSLYSSPVLLRIWFKRH here?
Answer: The amyloid nucleation score was 0.087 ± 0.79.

Question: For VGINLSSATGMFEGKIQDNA, which amyloid nucleation score is on record?
Answer: The amyloid nucleation score was -0.757 ± 0.37.

Question: For VGKLS, which amyloid nucleation score is on record?
Answer: Its amyloid nucleation score is -0.528 ± 0.29.

Question: For VGLCVLFRWLHKTWMMEWLG, which amyloid nucleation score is on record?
Answer: The amyloid nucleation score was 0.426 ± 0.35.

Question: With VGMTTSWMVDPHGGRPGYHS as the substance, how does the amyloid nucleation score read?
Answer: The amyloid nucleation score was 2.01 ± 0.16.
